Results published in US11766414B2, “Compositions, delivery systems, and methods useful in tumor therapy” (Indi Molecular, Inc., priority 2020, dated 2023).
Starred links: 1 amine or outer side, 2 acyl side, 3 side chain; linkers in the order of their positions; H or OH if unused. Positions of bridges follow the written chain, without caps; N, C: chain ends. Non-standard residues stand in square brackets, D forms with d. Residues, ends and D or L forms follow the SMILES beside them. Triazole bridges read from a SMILES are 1,4-linked. *: point of attachment. DOTA = O=C(O)CN1CCN(CC(=O)O)CCN(CC(=O)*)CCN(CC(=O)O)CC1; Pteroyl = Nc1nc2ncc(CNc3ccc(C(=O)*)cc3)nc2c(=O)[nH]1; Butanoyl(4-(4-I-phenyl)) = O=C(CCCc1ccc(I)cc1)*; Butanoyl(4-(4-MePh)) = Cc1ccc(CCCC(=O)*)cc1; Lys(N3) = [N-]=[N+]=NCCCC[C@H](N)C(=O)O; γGlu = O=C(O)[C@H](CCC(=O)[*:2])N[*:1]; AEEEA = NCCOCCOCCOCC(=O)O; Pra = C#CC[C@H](N)C(=O)O

Key:
[1] = molecular target: human serum albumin (Homo sapiens, UniProt P02768); conditions: read-out: affinity for human serum albumin; cited from earlier work
[2] = Plasma protein binding, human plasma; format: in vitro ADME; conditions: human, plasma
Procedure: (§1) HTD 96 a/b regenerated cellulose membrane strips with mass cutoff of 12-14 kDa were soaked in ultra-pure water at room temperature for 1 hour. Each swelled membrane was then soaked in 20:80 ethanol:water for 20 minutes.
(§2) Just prior to the experiment, the membranes were re-soaked in ultra-pure water. Plasma was prepared by thawing under cold water. The plasma was centrifuged to remove any clots and pH was adjusted to 7.0-8.0. Test articles and control compounds were diluted to 2 μM. The dialysis device was loaded by transferring 150 μL of the test article (in triplicate) to the donor side. The dialysis device was placed in a humidified incubator at 37° C. with 5% CO2 in a shaking platform that rotated slowly for 4 hours. After incubation, 50 μL of the supernatant was taken from both sides and analyzed by LC-MS/MS.

[3] = Plasma protein binding, CD-1 mouse plasma; format: in vitro ADME; conditions: CD-1 mouse plasma; read-out: Plasma % Bound, Mu (converted)
Procedure: as §1, §2

[4] = molecular target: human recombinant NEP (Homo sapiens, UniProt P08473); test: NEP enzymatic cleavage assay (MALDI, HPLC); format: biochemical; conditions: for cleavage of the test article: 1 nM NEP, MALDI-TOF MS; for in vitro Assay Data (NEP assay): Table 2
Procedure: In order to test the susceptibility of GFK and MVK linkers to NEP-mediated cleavage, the peptide (Folate-hshta-Lys(MPBA)-Gly-Phe-Lys(DOTA) (SEQ ID NO:6)) was incubated with human recombinant NEP and analyzed the solution for the presence of cleaved adducts. MALDI was utilized to monitor the cleavage of a PCC heterobiligand that contains a NEP protease recognizable sequence (G-F-K). The PCC concentration was constant and the NEP concentration was titrated down from 10 nM to 1 nM, 0.1 nM, 0.01 nM, and no NEP. The NEP-mediated cleaved adduct was identified by mass. 10 μM PCC containing the GFK linker was combined with varying amounts of NEP. […] Below 0.1 nM no cleavage was observed. • Folate-hshta-Lys(MPBA)-Gly-Phe-Lys(DOTA) (SEQ ID NO:6) • Molecular weight 2231.42
The NEP-mediated cleavage was also monitored by HPLC. In agreement with the MALDI spectra, the HPLC chromatograms show depletion of the parent brush-border heterobiligand (retention time 17.1 minutes), dose-dependent on the amount of NEP spiked into the sample (10 nM, 1 nM, 0.1 nM, 0.01 nM, and no NEP). An appearance of a new peak (retention time 16.5 minutes) in concert with the depletion of the starting material is presumed to be the cleaved folate-containing peptide.
In order to test the specificity of NEP, a non-cleavable linker (PEG3) was also assayed.
To reduce the radioactive dose to the kidney, Indi ^177Lu-7327 was constructed to incorporate a GFK linker that is susceptible to cleavage by enzymes found predominately in the kidney's brush border. These enzymes cleave off the radionuclide-chelator complex, which is quickly eliminated by the kidney for excretion in the urine. The zinc metalloprotease neprilysin (NEP) is expressed with high abundance in the kidney. […] To confirm NEP-mediated cleavage of the GFK linker in Indi 7327, the peptide was incubated with recombinant human NEP at 37° C. for 1 h and analyzed by matrix-assisted laser desorption/ionization mass spectrometry (MALDI-MS) for the evolution of cleaved adducts (FIG. 42). […] The expected cleaved adduct (mass: 1283.16 m/z) appears in the samples containing 10, 1.0, and 0.1 nM NEP. […] Below 0.1 nM NEP, no cleavage was observed. In addition to confirming the selectivity of NEP for the GFK linker, it is also important to note that the remaining portions of the Indi 7327 were impervious to the enzyme.

[5] = Plasma stability, human plasma
Procedure: (§3) Plasma was thawed in a 37° C. water bath. Residual clots were removed via centrifugation at 4000 rpm for 5 minutes. The pH of the plasma was adjusted to 7.4 if required. Test articles were diluted to 100 μM by diluting a 1 mM working solution (in DMSO) with 45% methanol in water. To 98 μL of plasma was added 2 μL of the 100 μM solution, resulting in 2 μM final concentration of the test article. Samples were incubated at 37° C. in a water bath. At the indicated time points (0, 10, 30, 60, 120 minutes) 100 μL of 4% H3PO4 was added followed by 800 μL of stop solution (200 ng/mL tolbutamide and 200 ng/mL labetalol in 100% acetonitrile). The samples were centrifuged and the plasma protein-free supernatant (100 μL) was subjected to LC-MS/MS analysis.

[6] = Plasma stability, CD-1 mouse plasma
Procedure: as §3

[7] = system: human plasma proteins; test: Plasma protein binding, human plasma; format: in vitro ADME; conditions: human plasma
Procedure: as §1, §2

[8] = system: mouse plasma proteins; test: Plasma protein binding, CD-1 mouse plasma; format: in vitro ADME; conditions: CD-1 mouse plasma
Procedure: as §1, §2

[9] = system: OVCAR3 (FOLR1+) tumor bearing NSG mice; conditions: mouse, in vivo, iv, 200 uCi, 4 h
Procedure: Female, 7-week-old NSG mice were housed under pathogen-free conditions. Water and food were provided ad libitum. To create mice with FOLR1+ ovarian xenograft tumors, mice were injected subcutaneously with OVCAR3 cells (1×10^7 cells per mouse) resuspended in 50% Matrigel in PBS into the shoulder region. Tumor growth was monitored by caliper measurements. OVCAR3 is a human ovarian adenocarcinoma known to over-express FOLR1.
^68Ga PET imaging was used to study in vivo biodistribution of heterobiligands in non-tumor bearing (healthy) mice and OVCAR3 tumor bearing mice. 100-200 μCi of [^68Ga]DOTA-labeled heterobiligand was administered intravenously (i.v.) via the tail vein of each mouse. […]
Evaluation of a folate-hshta (SEQ ID NO:6) Nterm heterobiligand bearing both an albumin binder and DOTA chelator in PET was a priority, given that DOTA can accommodate both ^68Ga for imaging and ^177Lu for radiotherapy. […] The time-course biodistribution of ^68Ga-labeled folate-hshta-PEG3-Lys(MPBA)-Lys(DOTA) (SEQ ID NO:6) (compound #2809) was calculated to quantify the uptake in major organs including the tumor (FIG. 17). […] Larger tumors (490 mm^3) were also evaluated with the ^68Ga-chelated PET probe.
Biodistribution was initially evaluated by PET imaging, as the time frame for a significant portion of clearance is roughly similar to the time frame of PET imaging experiments. […]

[10] = human plasma, read-out: Plasma % Bound, Hu (converted)

Sequence of human recombinant NEP (P08473 whole entry): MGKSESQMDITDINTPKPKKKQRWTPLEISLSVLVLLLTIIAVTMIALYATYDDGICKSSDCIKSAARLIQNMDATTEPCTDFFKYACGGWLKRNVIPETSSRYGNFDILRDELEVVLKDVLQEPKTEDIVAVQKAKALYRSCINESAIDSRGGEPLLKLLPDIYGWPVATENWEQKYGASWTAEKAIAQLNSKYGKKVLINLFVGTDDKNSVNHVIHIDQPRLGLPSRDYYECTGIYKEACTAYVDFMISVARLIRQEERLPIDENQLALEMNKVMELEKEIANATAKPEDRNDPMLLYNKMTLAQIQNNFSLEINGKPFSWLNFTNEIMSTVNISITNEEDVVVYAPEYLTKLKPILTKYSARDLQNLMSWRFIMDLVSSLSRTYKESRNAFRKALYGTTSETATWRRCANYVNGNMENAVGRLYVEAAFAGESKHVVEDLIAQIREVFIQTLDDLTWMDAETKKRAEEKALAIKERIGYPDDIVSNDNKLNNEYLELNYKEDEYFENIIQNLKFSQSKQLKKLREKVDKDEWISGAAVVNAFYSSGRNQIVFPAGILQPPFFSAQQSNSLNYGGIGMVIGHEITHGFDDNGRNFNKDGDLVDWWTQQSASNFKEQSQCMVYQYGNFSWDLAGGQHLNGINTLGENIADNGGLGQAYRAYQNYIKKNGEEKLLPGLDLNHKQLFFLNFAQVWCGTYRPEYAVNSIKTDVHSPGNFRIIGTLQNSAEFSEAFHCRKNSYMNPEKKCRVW

cleavage of the test article [4] | in vitro Assay Data (NEP assay) [4] | Compound | fraction unbound [2, 10] | fraction unbound [3] | half-life [5] | half-life [6] | also measured
 |  | GI48-GA: albumin-binding fragment of protein G from Streptococcus strain GI48, SEQ ID NO:33 (LAEAKVLANRELDKYGVSDYYKNLINNAKTVEGVKALIDEILAA) |  |  |  |  | Kd [1]: 1 nM
substantial | Cleavage of -M-V-K- | CSCC[C@H](NC(=O)[C@H](CCCCNC(=O)CCCc1ccc(I)cc1)NC(=O)[C@@H]1CCCCn2cc(nn2)C[C@H](NC(=O)CC[C@H](NC(=O)c2ccc(NCc3cnc4nc(N)[nH]c(=O)c4n3)cc2)C(=O)O)C(=O)N[C@H](Cc2c[nH]cn2)C(=O)N[C@H](CO)C(=O)N[C@H](Cc2c[nH]cn2)C(=O)N[C@H]([C@H](C)O)C(=O)N[C@H](C)C(=O)N1)C(=O)N[C@H](C(=O)N[C@@H](CCCCNC(=O)CN1CCN(CC(=O)O)CCN(CC(=O)O)CCN(CC(=O)O)CC1)C(=O)O)C(C)C [compound 1306, folate-hshta-Lys(IPBA)-M-V-Lys(DOTA)] ({Pteroyl-γGlu}-[Pra][dH][dS][dH][dT][dA][Lys(N3)]K(Butanoyl(4-(4-I-phenyl)))MVK(DOTA)-OH; triazole 1-7) | 0.0265 | 0.0288 | > 4.82 h | > 4.82 h | fraction unbound ([2]; species not given, read-out: bound to plasma (converted)): ~0.03
 |  | C[C@@H](O)[C@@H]1NC(=O)[C@H](CCCCN)NC(=O)[C@@H](Cc2c[nH]c3ccccc23)NC(=O)[C@H](Cc2ccccc2)NC(=O)[C@@H](NC(=O)[C@H](N)Cc2ccccc2)CSSC[C@@H](C(=O)N[C@H](CO)[C@@H](C)O)NC1=O [Octreotide Acetate, reference compound] |  |  |  |  | Plasma % Bound, Hu [7]: 59.41%; Plasma protein binding % Recovery, Hu [7]: 84.3%; Plasma % Bound, Mu [8]: 62.36%; Plasma protein binding % Recovery, Mu [8]: 84.5%
complete | Cleavage of -G-F-K- | C[C@H](O)[C@H]1NC(=O)[C@@H](Cc2c[nH]cn2)NC(=O)[C@@H](CO)NC(=O)[C@@H](Cc2c[nH]cn2)NC(=O)[C@@H](NC(=O)CC[C@H](NC(=O)c2ccc(NCc3cnc4nc(N)[nH]c(=O)c4n3)cc2)C(=O)O)Cc2cn(nn2)CCCC[C@@H](C(=O)N[C@@H](CCCCNC(=O)CCCc2ccc(I)cc2)C(=O)NCC(=O)N[C@@H](Cc2ccccc2)C(=O)N[C@@H](CCCCNC(=O)CN2CCN(CC(=O)O)CCN(CC(=O)O)CCN(CC(=O)O)CC2)C(=O)O)NC(=O)[C@@H](C)NC1=O [Compound #1307, folate-hshta-Lys(IPBA)-Gly-Phe-Lys(DOTA)] ({Pteroyl-γGlu}-[Pra][dH][dS][dH][dT][dA][Lys(N3)]K(Butanoyl(4-(4-I-phenyl)))GFK(DOTA)-OH; triazole 1-7) | 0.005 | 0.004 | > 4.82 h | > 4.82 h | 
 |  | Cc1ccc(CCCC(=O)NCCCC[C@H](NC(=O)COCCOCCOCCNC(=O)[C@@H]2CCCCn3cc(nn3)C[C@H](NC(=O)CC[C@H](NC(=O)c3ccc(NCc4cnc5nc(N)[nH]c(=O)c5n4)cc3)C(=O)O)C(=O)N[C@H](Cc3c[nH]cn3)C(=O)N[C@H](CO)C(=O)N[C@H](Cc3c[nH]cn3)C(=O)N[C@H]([C@H](C)O)C(=O)N[C@H](C)C(=O)N2)C(=O)N[C@@H](CCCCNC(=O)CN2CCN(CC(=O)O)CCN(CC(=O)O)CCN(CC(=O)O)CC2)C(N)=O)cc1 [^68Ga-chelated compound #2809, metal not drawn] ({Pteroyl-γGlu}-[Pra][dH][dS][dH][dT][dA][Lys(N3)][AEEEA]K(Butanoyl(4-(4-MePh)))K(DOTA)-NH2; triazole 1-7) |  |  |  |  | accumulation within the tumor [9]: ~2.2 % of the injected dose/cc
